Experiment [1] concerns the target T1, purified E. coli 70S ribosome (E. coli (endogenous in BW25113), UniProt P60723 1-201; P61175 1-110; P0ADZ0 1-100; P0A7M6 1-63; P0A7J3 1-165). As to the kind of experiment: FP; competition with cf-Api88.
The target in experiment [2] is T1, purified E. coli 70S ribosome. As to the kind of experiment: FP; competition with cf-Api88. The source holds these as a separate data set.
Experiment [3] addresses purified E. coli 30S ribosomal subunit (E. coli (endogenous in MRE600)). As to the kind of experiment: FP.
Experiment [4] deals with purified E. coli 50S ribosomal subunit (E. coli (endogenous in MRE600), UniProt P60723 1-201; P61175 1-110; P0ADZ0 1-100; P0A7M6 1-63; P0A7J3 1-165). As to the kind of experiment: FP.
The target in experiment [5] is T1, purified E. coli 70S ribosome. As to the kind of experiment: FP.

Where no end group is shown, it is not given here. [ ]: non-standard residue; d: D form. Gu = N-terminal tetramethylguanidine; Orn = NCCC[C@H](N)C(=O)O

For Gu-[Orn]NNRPVYIPRPRPPHPRL-OH [Api137 (Gu-ONNRPVYIPRPRPPHPRL-OH)], in experiment [1], affinity was put at a Ki of 3.03 µM. In experiment [2], this molecule gave an IC50 of 15.9 µM.

In experiment [1], Gu-[Orn]NNRPVYIPRPRPPHPRL-NH2 [Api88 (Gu-ONNRPVYIPRPRPPHPRL-NH2)] gave a Ki of 2.45 µM. In experiment [2], this molecule came in with an IC50 of 12.8 µM.

VDKPPYLPRPRPPR[dR]IYN[dR]-NH2 [Onc112 (VDKPPYLPRPRPPRrIYNr-NH2)] displayed a Ki in experiment [1] of 1.87 µM. For the same molecule, in experiment [2], the IC50 was 9.8 µM.

Regarding Gu-[Orn](5(6)‑carboxyfluorescein)NNRPVYIPRPRPPHPRL-OH [cf-Api137 (5(6)-carboxyfluorescein-labeled Api137, Gu-ONNRPVYIPRPRPPHPRL-OH)], the affinity in experiment [3], expressed as Kd, was 20.2 µM.

Regarding {5(6)‑carboxyfluorescein}-VDKPPYLPRPRPPR[dR]IYN[dR]-NH2 [cf-Onc112 (5(6)-carboxyfluorescein-labeled Onc112, VDKPPYLPRPRPPRrIYNr-NH2)], the Kd worked out at 1.14 µM in experiment [3], 0.05 µM in experiment [4] and 0.06 µM in experiment [5].

The molecule Gu-[Orn](5(6)‑carboxyfluorescein)NNRPVYIPRPRPPHPRL-NH2 [cf-Api88 (5(6)-carboxyfluorescein-labeled Api88, Gu-ONNRPVYIPRPRPPHPRL-NH2)] yielded a Kd in experiment [3] of 14.3 µM. That is a double-digit micromolar value.

For the origin of these results see article PMC11087509 (2024).
